For the assay, the target named is 原核表达的重组人GFAP蛋白 (PET28a-GFAP, 大肠杆菌BL21表达, Ni-NTA纯化) (human) (UniProt P14136). The assay is described as follows: direct ELISA, purified GFAP coated at 10 μg/ml, purified antibody diluted 1:200 to 1:12800, goat anti-mouse IgG-HRP, OD450.
Sequence of UniProt P14136 (P14136 other isoform, or with tags, fused parts or gaps): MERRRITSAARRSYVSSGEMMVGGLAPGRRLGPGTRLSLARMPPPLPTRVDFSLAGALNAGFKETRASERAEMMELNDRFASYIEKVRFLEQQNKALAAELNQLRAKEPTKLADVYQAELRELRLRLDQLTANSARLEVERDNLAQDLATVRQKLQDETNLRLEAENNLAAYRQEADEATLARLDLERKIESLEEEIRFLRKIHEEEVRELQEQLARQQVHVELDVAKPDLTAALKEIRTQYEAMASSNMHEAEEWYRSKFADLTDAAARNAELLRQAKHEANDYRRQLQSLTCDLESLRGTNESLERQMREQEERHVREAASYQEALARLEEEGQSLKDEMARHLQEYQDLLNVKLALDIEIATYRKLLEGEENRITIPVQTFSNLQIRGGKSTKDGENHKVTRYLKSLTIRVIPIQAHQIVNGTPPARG

B1: 小鼠抗人GFAP单克隆抗体 5C8 (杂交瘤细胞株5C8, CGMCC No.6915) (antibody, part only; not given: light chain variable region, V domains shown, part only)
VH: LASTATGVHSQVQLQQPGAELVRPGASVKLSCKASGYTFTSYWMNWVKQRPGQGLEWIGMINPSDSEIQYNQMFKDKATLTVDKSSSTAYIHLTSLTSEDSAVYYCARGLGRYWGQGTTLTVSPASTTPPSV
Molecule B1 showed an ELISA滴度 (dilution factor (1:x)) of over 10000.

These data come from CN105646705A.
